Assay results as given in US20140087995A1 (published 2014).
Numbered stars: 1 amine (or outer) side, 2 acyl side, 3 side chain; on linkers, the order of the positions; unused ones are H or OH. Bridge positions count the residues as written; N and C are the ends. Side chains are listed from the residue outwards. Ends that are not written are not given here. * marks the point of attachment. C20 diacid = O=C(O)CCCCCCCCCCCCCCCCCCC(=O)*; γGlu = O=C(O)[C@H](CCC(=O)[*:2])N[*:1]

T1: human calcitonin receptor (human, UniProt P30988 25-474)
T1 construct: whole, on cells; Membranes of BHK cells stably transfected with the human calcitonin receptor (Assay VII); also called hCTR; hCT
T1 sequence (looked up): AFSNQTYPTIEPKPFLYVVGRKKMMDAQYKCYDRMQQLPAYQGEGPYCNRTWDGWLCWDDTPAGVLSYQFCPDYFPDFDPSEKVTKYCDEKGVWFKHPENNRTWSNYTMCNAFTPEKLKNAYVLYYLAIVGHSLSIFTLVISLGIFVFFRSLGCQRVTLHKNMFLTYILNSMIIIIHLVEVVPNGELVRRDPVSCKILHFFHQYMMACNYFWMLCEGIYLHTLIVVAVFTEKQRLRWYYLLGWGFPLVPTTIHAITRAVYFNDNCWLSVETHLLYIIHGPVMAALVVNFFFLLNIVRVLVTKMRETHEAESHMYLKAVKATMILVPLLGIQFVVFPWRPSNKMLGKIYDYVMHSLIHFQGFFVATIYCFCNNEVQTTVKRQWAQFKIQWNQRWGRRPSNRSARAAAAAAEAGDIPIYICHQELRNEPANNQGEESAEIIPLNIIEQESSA


Legend:
[1] = target: T1, human calcitonin receptor; experiment: ratio of IC50 at hCTR over IC50 at hAmylin-R (SPA competition assays)
Procedure, shortened: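 Membranes (35 ng/μL final) + SPA beads, 50 mM Hepes pH 7.4 buffer with 1 mM CaCl2, 5 mM MgCl₂, 0.1% OA, 0.02% Tween20; 120 min, 25° C, shaking; centrifuged, counted; IC₅₀ by one-site binding competition.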

[2] = target: T1, human calcitonin receptor; experiment: SPA competition against 125I-calcitonin, membranes of BHK cells with human calcitonin receptor (Assay VII)
Procedure, shortened: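 BHK hCTR membranes 35 ng/μL + SPA beads 0.05 mg/well; buffer 50 mM Hepes pH 7.4, 1 mM CaCl2, 5 mM MgCl₂, 0.1% OA, 0.02% Tween20. 120 min, 25° C., shaking. Scintillation count; IC50 by one-site binding competition.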

Row | Ratio hCT/hAmylin binding [1] | IC50 [2] [nM] | Binder
1 | 151 | 42.5 | K([γGlu-C20 diacid])CNTATCATQRLADFLRHSSPNFGAIPSSTNVGPRTY-NH2 (disulfide 2-7; N-terminus assumed; SMILES CC[C@H](C)[C@H](NC(=O)[C@H](C)NC(=O)CNC(=O)[C@H](Cc1ccccc1)NC(=O)[C@H](CC(N)=O)NC(=O)[C@@H]1CCCN1C(=O)[C@H](CO)NC(=O)[C@H](CO)NC(=O)[C@H](Cc1c[nH]cn1)NC(=O)[C@H](CCCNC(=N)N)NC(=O)[C@H](CC(C)C)NC(=O)[C@H](Cc1ccccc1)NC(=O)[C@H](CC(=O)O)NC(=O)[C@H](C)NC(=O)[C@H](CC(C)C)NC(=O)[C@H](CCCNC(=N)N)NC(=O)[C@H](CCC(N)=O)NC(=O)[C@@H](NC(=O)[C@H](C)NC(=O)[C@@H]1CSSC[C@H](NC(=O)[C@@H](N)CCCCNC(=O)CC[C@H](NC(=O)CCCCCCCCCCCCCCCCCCC(=O)O)C(=O)O)C(=O)N[C@@H](CC(N)=O)C(=O)N[C@@H]([C@@H](C)O)C(=O)N[C@@H](C)C(=O)N[C@@H]([C@@H](C)O)C(=O)N1)[C@@H](C)O)C(=O)N1CCC[C@H]1C(=O)N[C@@H](CO)C(=O)N[C@@H](CO)C(=O)N[C@H](C(=O)N[C@@H](CC(N)=O)C(=O)N[C@H](C(=O)NCC(=O)N1CCC[C@H]1C(=O)N[C@@H](CCCNC(=N)N)C(=O)N[C@H](C(=O)N[C@@H](Cc1ccc(O)cc1)C(N)=O)[C@@H](C)O)C(C)C)[C@@H](C)O)
2 | 38.6 | 6.3 | K([γGlu-C20 diacid])CNTATCATQRLAEFLRHSSPNFGAIPSSTNVGPRTY-NH2 (disulfide 2-7; N-terminus assumed; SMILES CC[C@H](C)[C@H](NC(=O)[C@H](C)NC(=O)CNC(=O)[C@H](Cc1ccccc1)NC(=O)[C@H](CC(N)=O)NC(=O)[C@@H]1CCCN1C(=O)[C@H](CO)NC(=O)[C@H](CO)NC(=O)[C@H](Cc1c[nH]cn1)NC(=O)[C@H](CCCNC(=N)N)NC(=O)[C@H](CC(C)C)NC(=O)[C@H](Cc1ccccc1)NC(=O)[C@H](CCC(=O)O)NC(=O)[C@H](C)NC(=O)[C@H](CC(C)C)NC(=O)[C@H](CCCNC(=N)N)NC(=O)[C@H](CCC(N)=O)NC(=O)[C@@H](NC(=O)[C@H](C)NC(=O)[C@@H]1CSSC[C@H](NC(=O)[C@@H](N)CCCCNC(=O)CC[C@H](NC(=O)CCCCCCCCCCCCCCCCCCC(=O)O)C(=O)O)C(=O)N[C@@H](CC(N)=O)C(=O)N[C@@H]([C@@H](C)O)C(=O)N[C@@H](C)C(=O)N[C@@H]([C@@H](C)O)C(=O)N1)[C@@H](C)O)C(=O)N1CCC[C@H]1C(=O)N[C@@H](CO)C(=O)N[C@@H](CO)C(=O)N[C@H](C(=O)N[C@@H](CC(N)=O)C(=O)N[C@H](C(=O)NCC(=O)N1CCC[C@H]1C(=O)N[C@@H](CCCNC(=N)N)C(=O)N[C@H](C(=O)N[C@@H](Cc1ccc(O)cc1)C(N)=O)[C@@H](C)O)C(C)C)[C@@H](C)O)
3 | 28.5 | 6.62 | K([γGlu-C20 diacid])CNTATCATQRLAEFLRHSSPNFGAIPSSTNVGRETY-NH2 (disulfide 2-7; N-terminus assumed; SMILES CC[C@H](C)[C@H](NC(=O)[C@H](C)NC(=O)CNC(=O)[C@H](Cc1ccccc1)NC(=O)[C@H](CC(N)=O)NC(=O)[C@@H]1CCCN1C(=O)[C@H](CO)NC(=O)[C@H](CO)NC(=O)[C@H](Cc1c[nH]cn1)NC(=O)[C@H](CCCNC(=N)N)NC(=O)[C@H](CC(C)C)NC(=O)[C@H](Cc1ccccc1)NC(=O)[C@H](CCC(=O)O)NC(=O)[C@H](C)NC(=O)[C@H](CC(C)C)NC(=O)[C@H](CCCNC(=N)N)NC(=O)[C@H](CCC(N)=O)NC(=O)[C@@H](NC(=O)[C@H](C)NC(=O)[C@@H]1CSSC[C@H](NC(=O)[C@@H](N)CCCCNC(=O)CC[C@H](NC(=O)CCCCCCCCCCCCCCCCCCC(=O)O)C(=O)O)C(=O)N[C@@H](CC(N)=O)C(=O)N[C@@H]([C@@H](C)O)C(=O)N[C@@H](C)C(=O)N[C@@H]([C@@H](C)O)C(=O)N1)[C@@H](C)O)C(=O)N1CCC[C@H]1C(=O)N[C@@H](CO)C(=O)N[C@@H](CO)C(=O)N[C@H](C(=O)N[C@@H](CC(N)=O)C(=O)N[C@H](C(=O)NCC(=O)N[C@@H](CCCNC(=N)N)C(=O)N[C@@H](CCC(=O)O)C(=O)N[C@H](C(=O)N[C@@H](Cc1ccc(O)cc1)C(N)=O)[C@@H](C)O)C(C)C)[C@@H](C)O)
4 | 21.2 | 3.8 | K([γGlu-C20 diacid])CNTATCATQRLAEFLRHSSPNFGAIPSSTNVGPHTY-NH2 (disulfide 2-7)
5 | 16.7 | 3.27 | K([γGlu-C20 diacid])CNTATCATQRLADFLRHSSPNFGAIPSSTNVGPETY-NH2 (disulfide 2-7; N-terminus assumed; SMILES CC[C@H](C)[C@H](NC(=O)[C@H](C)NC(=O)CNC(=O)[C@H](Cc1ccccc1)NC(=O)[C@H](CC(N)=O)NC(=O)[C@@H]1CCCN1C(=O)[C@H](CO)NC(=O)[C@H](CO)NC(=O)[C@H](Cc1c[nH]cn1)NC(=O)[C@H](CCCNC(=N)N)NC(=O)[C@H](CC(C)C)NC(=O)[C@H](Cc1ccccc1)NC(=O)[C@H](CC(=O)O)NC(=O)[C@H](C)NC(=O)[C@H](CC(C)C)NC(=O)[C@H](CCCNC(=N)N)NC(=O)[C@H](CCC(N)=O)NC(=O)[C@@H](NC(=O)[C@H](C)NC(=O)[C@@H]1CSSC[C@H](NC(=O)[C@@H](N)CCCCNC(=O)CC[C@H](NC(=O)CCCCCCCCCCCCCCCCCCC(=O)O)C(=O)O)C(=O)N[C@@H](CC(N)=O)C(=O)N[C@@H]([C@@H](C)O)C(=O)N[C@@H](C)C(=O)N[C@@H]([C@@H](C)O)C(=O)N1)[C@@H](C)O)C(=O)N1CCC[C@H]1C(=O)N[C@@H](CO)C(=O)N[C@@H](CO)C(=O)N[C@H](C(=O)N[C@@H](CC(N)=O)C(=O)N[C@H](C(=O)NCC(=O)N1CCC[C@H]1C(=O)N[C@@H](CCC(=O)O)C(=O)N[C@H](C(=O)N[C@@H](Cc1ccc(O)cc1)C(N)=O)[C@@H](C)O)C(C)C)[C@@H](C)O)
6 | 11.1 | 4.28 | K([γGlu-C20 diacid])CNTATCATQRLAEFLRHSSPNFGAIPSSTNVGHETY-NH2 (disulfide 2-7; N-terminus assumed; SMILES CC[C@H](C)[C@H](NC(=O)[C@H](C)NC(=O)CNC(=O)[C@H](Cc1ccccc1)NC(=O)[C@H](CC(N)=O)NC(=O)[C@@H]1CCCN1C(=O)[C@H](CO)NC(=O)[C@H](CO)NC(=O)[C@H](Cc1c[nH]cn1)NC(=O)[C@H](CCCNC(=N)N)NC(=O)[C@H](CC(C)C)NC(=O)[C@H](Cc1ccccc1)NC(=O)[C@H](CCC(=O)O)NC(=O)[C@H](C)NC(=O)[C@H](CC(C)C)NC(=O)[C@H](CCCNC(=N)N)NC(=O)[C@H](CCC(N)=O)NC(=O)[C@@H](NC(=O)[C@H](C)NC(=O)[C@@H]1CSSC[C@H](NC(=O)[C@@H](N)CCCCNC(=O)CC[C@H](NC(=O)CCCCCCCCCCCCCCCCCCC(=O)O)C(=O)O)C(=O)N[C@@H](CC(N)=O)C(=O)N[C@@H]([C@@H](C)O)C(=O)N[C@@H](C)C(=O)N[C@@H]([C@@H](C)O)C(=O)N1)[C@@H](C)O)C(=O)N1CCC[C@H]1C(=O)N[C@@H](CO)C(=O)N[C@@H](CO)C(=O)N[C@H](C(=O)N[C@@H](CC(N)=O)C(=O)N[C@H](C(=O)NCC(=O)N[C@@H](Cc1c[nH]cn1)C(=O)N[C@@H](CCC(=O)O)C(=O)N[C@H](C(=O)N[C@@H](Cc1ccc(O)cc1)C(N)=O)[C@@H](C)O)C(C)C)[C@@H](C)O, also called compound 107)
7 | 26.4 | 26.1 | K([γGlu-C20 diacid])CNTATCATQRLAEFLRHSSPNFGAIPSSTNVGSHTY-NH2 (disulfide 2-7; N-terminus assumed; SMILES CC[C@H](C)[C@H](NC(=O)[C@H](C)NC(=O)CNC(=O)[C@H](Cc1ccccc1)NC(=O)[C@H](CC(N)=O)NC(=O)[C@@H]1CCCN1C(=O)[C@H](CO)NC(=O)[C@H](CO)NC(=O)[C@H](Cc1c[nH]cn1)NC(=O)[C@H](CCCNC(=N)N)NC(=O)[C@H](CC(C)C)NC(=O)[C@H](Cc1ccccc1)NC(=O)[C@H](CCC(=O)O)NC(=O)[C@H](C)NC(=O)[C@H](CC(C)C)NC(=O)[C@H](CCCNC(=N)N)NC(=O)[C@H](CCC(N)=O)NC(=O)[C@@H](NC(=O)[C@H](C)NC(=O)[C@@H]1CSSC[C@H](NC(=O)[C@@H](N)CCCCNC(=O)CC[C@H](NC(=O)CCCCCCCCCCCCCCCCCCC(=O)O)C(=O)O)C(=O)N[C@@H](CC(N)=O)C(=O)N[C@@H]([C@@H](C)O)C(=O)N[C@@H](C)C(=O)N[C@@H]([C@@H](C)O)C(=O)N1)[C@@H](C)O)C(=O)N1CCC[C@H]1C(=O)N[C@@H](CO)C(=O)N[C@@H](CO)C(=O)N[C@H](C(=O)N[C@@H](CC(N)=O)C(=O)N[C@H](C(=O)NCC(=O)N[C@@H](CO)C(=O)N[C@@H](Cc1c[nH]cn1)C(=O)N[C@H](C(=O)N[C@@H](Cc1ccc(O)cc1)C(N)=O)[C@@H](C)O)C(C)C)[C@@H](C)O)
